Data published in the nanobody polyreactivity screen of Harvey et al. (2022).

Assay: yeast display, Sf9 membrane polyspecificity reagent, FACS + sequencing; frameworks hold sequencing errors
Procedure, shortened: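 Sorting gates, low and high (top ~1%), were placed on anti-HA fluorescence to track expression and on streptavidin fluorescence to track reagent binding. A clone's polyreactivity label is taken from the gate it came out of. The reagent was 10% biotinylated, detergent-solubilized Sf9 membrane, applied for 1 hour at 4 °C to galactose-induced yeast display cells.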

Sequence | polyreactivity (PSR sort gate)
QVQLVDSGGGLVQAGGSLRLSCAASGSTFTSYAMGWYRQAPGKERELVAAITGSGGRTYYADSVKGRFTISRDNAKNTVYLQMNSLKPEDTAVYYCAARKVRTVYQSRGNYWGQGTLVTVSS | high polyreactivity
QVQLVDSGGGLVQAGGSLRLSCAASGSTFYGYAMGWYRQAPGKERELVAAITSSGTRTYYADSVKGRITISRDNAKNSVYLQMNSLKPEDTAVYYCAADAPNFGLYRDKDYDYWGQGTQVTVSS | high polyreactivity
QVQLVDSGGGLVQAGGSLRLSCAASGSTFYWYPMGWYRQAPGKERELVAAISRSSGSTYYADSVKGRFTISRDNAKNTVYLQMNSLTPEDTAVYYCAADYYLRSFVWTAYDSWGHGTQVTVSS | high polyreactivity
QVQLVDSGGGLVQAGGSLRLSCAASGSTYSPNAMGWNRQAPGKERELVAAITGGGSTTYADSVQGRFTISRDNATNTVYLQMNSLKPEETAVYYCNTDGPRYARPFDSWGQGTQVTVSS | low polyreactivity
QVQLVDSGGGLVQAGGSLRLSCAASGYIFPWYVKGWYRQAPVKERELVAAISWSGGSTYYADSVKGRFTISRDNAKNTVYLQMKSLKPEDTAVYYCNAVRTYRDVSYNSWGQGTQVNVSS | high polyreactivity
QVQLVDSGGGLVQAGGSLRLSCAASGYIFRVYAMGWYRQAPGKERELVAAISGSGGRTYYADSVKGRFTISRDNAKNTVYLQMNSLKPEDTAVYYCAAYRVSDYDYWGQGTQVTVSS | high polyreactivity
QVQLVDSGGGLVQAGGSLRLSCAASGYTFPSKTMGWYRQAPGKERELVAAISGGGRTYYADSVKGRFTISRDNAKNTVYLQMNCLKPEDSAVYYCAKDSWYTQNRYNYWGQGTQVNVSS | low polyreactivity
QVQLVDSGGGLVQAGGSLRLSCAASVITFGYYAMGWYRQAPGKERELVAAISRSGGNTRYADSVKGRFTISRDNAKNTVYLQMNSLKTDDTAVYYCAKRTTYSDDYWGQGTQVTVSS | high polyreactivity
QVQLVDSGGGLVQAGGSLRLSCADSGRTFYTNAMGWYRQAPGKERELVAAIDISGSTYYADSVKGRFTISRDNAKNTVYLQMNSLKPEDTAVYYCNVDTVCLGGEKGGYYWGQGSQVTVSS | low polyreactivity
QVQLVDSGGGLVQAGGSLRLSCAPSGYIFPYNAMGWYRQAPGKEREFVAAITSSGGSTYYADSVKGRFTISRENAKNTVYLQMNSLKPEDTAVYYCARVPLHRYGYWGQGTQVNVSS | high polyreactivity
QVQLVDSGGGLVQAGGSLRLSCDASGITFYDYAMGLYRQAPGKEMEFVASITSSGGYTYYADSVKGRFTISRDNAKNTVYLQMNILKPEDTSVYYCNVRYKRNRWQYDYWGQGTQVTVSS | high polyreactivity
QVQLVDSGGGLVQAGGSLRLSCDASGSIFFWYTMGWYRQAPGKESELVATITGSGSSTTYADSVKGRFTISRDNAKNTVYLQMISLKPEDTAVYYCAAADIIDHSFPYDYWGLGTQVTVSS | low polyreactivity
QVQLVDSGGGLVQAGGSLRLSSAASGFTLLYNAMGSYRQAPGKERELVSTITGGGTTYADSVKGRFTISRDNAKNTVYLQMNSLKPEDTAVYYCATSRVWRLYRYLPQYRGYYYWGQGTQVTVSS | high polyreactivity
QVQLVDSGGGLVQAGGSLRLSSAASGSTFRYYAMGWYRQAPGKERELVAAISRSGGRTYYADSVKWRFTISRDKAKNTVYLQINSLKPEDNAVYYCNKDSRASPYGYWGQGTQVTVSS | high polyreactivity
QVQLVDSGGGLVQAGGSLRLTCAASGIIIPVYAMGWYRQAPGKERELVAAISSGGSTYYADSVKGRFTISRDNAKNTVYLQINSLKPEDTAVYYCAARKVRYPYRWYDYWGQGTQVTVSS | high polyreactivity
QVQLVDSGGGLVQAGGSLRLTCAASGRIFCDNAMGWYRQEPGKERELVAAISDSVVITYYADSVKGRFTISRDNAKNTVYLQMNSLKPEDTAVYYCAADKRGTVYLSSFWMDYWGQGTQVTVSS | low polyreactivity
QVQLVDSGGGLVQAGGSLRLTCAASGRTFYGNAMGWYRQAPGKERELVATINYSGGSTYYADSVKGRFTISRDNAKNTVYLQMNSLKPEDTAVYYCAADDPEEFDYWGQGTQVTVSS | low polyreactivity
QVQLVDSGGGLVQAGGSLRLTCAASGSIFNYYTMGWSRQAPGKERELVAAISSSGGSTYYADSVKGRFTISRDNAKNTVYLQMNSLKPVDTAVYFCNTYPPAHREYESWGQGTQLTVSS | high polyreactivity
QVQLVDSGGGLVQAGGSLRLTCAASGSIFPRNVMGWYRHAPGKERELVAAISSRATRTYYADSVKGRFTISRDNAKNTVYLQMNSLKPEDTAVYYCAADRTLYSSGYYYWGQGSQVTVSS | high polyreactivity
QVQLVDSGGGLVQAGGSLRLTCDASGSTFYVNFMGWYRQAPGKERELDALIDWRGGSTYYADSVKGRFTISRDNAKNTVYLQMNSLKPEDTAVYYCKKDAQFYYKLPYYKERDWGQGTQVTVSS | low polyreactivity
QVQLVDSGGGLVQAGGSLRLTFAASGRTFRWNVMGWYRQAPGKERELVATISRRSGSTNYADSVKGRFTISRDNAKITVYLQMNSLKPEDTAVYYCAVVIVRALVYAGDYWGQGTQVTVSS | low polyreactivity

Sequence | polyreactivity (PSR sort gate)
QVQLVDSGGGLVQAGGSLRVSCAASGRIFSGHAMGWYRQAPGKVRELVAAITSGGDDTYYADSVKGRFTISRDNAKNTVYLQMNSLKPEDTAVYYCAARYLGYTYYYWGQGTQVSVSS | low polyreactivity
QVQLVDSGGGLVQAGGSLSLSCAASGRIFTHYSMGWYRQATGKERELVAGMSQGGGSTYYADSVKGRFTISRDNAKNTVYLQMNSLKPEDTAVYYCAKTYDYVDYDYWGQGTQVTVSS | low polyreactivity
QVQLVDSGGGLVQAGGSLSLSCAASGSTFKHYAMGWYRQAPGKERELVAAISSRGGSTHYADSVKGRFTISRDNAKNTVYLQMNSLKPEDTAVYYCARDTDTLSSRSSDYDYWGQGTQVTVSS | low polyreactivity
QVQLVDSGGGLVQAGVSLRLSCAASGSTFVFYAMGWYRQAPGKERELVAGISWSGGSTYYADSVKGRFTISRDNAKNTVYLQMNSLKPEDTAVYYCAARYTRYLGSGYYYCGQGTQVTVSS | high polyreactivity
QVQLVDSGGGLVQEGGSLRLSCAASGSIFSTYARGWYRQAPGKEWEVVAAITRGGRTTYADSVKGRFTISRDNAKNTVYLQMNSLKPEDTAVYYCNAVGVYYWWYRLYDYWGQGTQVTLSS | high polyreactivity
QVQLVDSGGGVVQAGGSLLLSCPASGLIIKVYAMGWYRQAPGKERELVAAITYSGGSTDYADSVKGRFTISRDNAKNTVFLQMISLKPEDTAVYYCNVEKVGHVNSYGYDYWGQGTQVTVSS | low polyreactivity
QVQLVDSGGGVVQAGGSLRLSCAASGFIFSGYAMGWYRPAPGKERELVAVISRGGGSTSYADSVKGRFTISRDNAKNTVYLQMNSLKPEDTAVYYCAAVYYPLSVDNDYWGQGTQVTVSS | high polyreactivity
QVQLVDSGGRLEQAGGSLRLSCAASGSIFGWNAMGWYRQAPGKERELVAAINWTGGTTYYADSVKGRITISRDNAKYTVYLQMKSLKPADTAVYYCAARLTYHVAGQITRYYYWGQGTQVTVSS | low polyreactivity
QVQLVDSGRGLVQAGGSLRLSCAASGGTFARNAMGWYRQAPGKERELVAAIRGGVSTNYADSVKGRFTISSDNAKNTVYLQMNSLKPEDTAVYYCNASPPTLEGYWGQGTQVTVSS | low polyreactivity
QVQLVDSGRGLVQAGGSLRLSCASSGSTFRDYAMGWYRQAPGKETELVAVITWNGGSTYYADSVKGRFTISRDNAKNTVYLEMNSLKPEDTAVYYCGAVYPRSLSTEYYYWGQGTQVTVSS | high polyreactivity
QVQLVDSRGGLVQAGGSLRLSCAASGRTLYSNAKGLSRQAPGKERDLVAAISGSGDTTYYADSVKGRFTISRDNAKNTVYLTMKSLKPEDTAVYYCAADHDSYGAGYEYCGQGTQVTVSS | low polyreactivity
QVQLVDSVGGLVQAGASLRLSCAASGSIFYYYAMGWYREAPGKERELVAAIRYRGGRTYYADSVKGRFTISRDNAKNTVYLQMNSLKPEDTAVYYCNADVIRRGGSRYSSGRDFDYWGQGTQVTVSS | high polyreactivity
QVQLVDSVGGLVQAGGSLRLSCAASGLTFLGNAMGWYRQATGKEREFVAGIDRSSVSTYADSVKGRFTISRDNAKNTVYLQMNSLKPEDTEVYYCAVVEYGIWVGWVPYATFGMNYWGQGTQVTVSS | high polyreactivity
QVQLVDSVRGLVQAGGSLRLSCAASGSIFNQNAMGWYRQAPGKERELVAVISSGGRTSYADSVKGRFTISRDNAKNTVYLQMNSLKPEDTAVYYCAADYGDRYWDYGYWGQGTQVTVSS | low polyreactivity
QVQLVDTGRGLVQAGGSLRLSCAPSGRTFGYNAMGWYRQAPGKERELVAAINWSGASTYYADSVKWRFTISRDNAKNTVYLQMKSLKPEDTAVYYCAADYSYIYGFDYWGQGTQVTVST | low polyreactivity
QVQLVEAGGGLVHAGGSLRLSCAASGRIFLAYAMGCYRQAPGKEMELVATIRSGGSTTYADSVKGRFTISRDNAKNSVYLQMNSLKTEDTAVYYCARRYQRKKPVFPHSQGAYDYWGQGTQVTVSS | low polyreactivity
QVQLVEAGGGLVQAGGSLRLSCAASGFTISSNAMGWYRQAPGKERELVAAISFNSTSTYYADSVKGRFTISRDNAKNSVYLQMNSLKPEDTAVYYCSADVPRVQSEPEYDYWGQGTQVTVSS | low polyreactivity
QVQLVEAGGGLVQAGGSLRLSCAASGGIFLPYAMGWYRQAPGKERELVAGITSVGSTYADSVKGRFTISRDNAKNTVYLQMNSLKPEDTAVYYCNADIYFVEYDYWGQGTQVTVSS | low polyreactivity
QVQLVEAGGGLVQAGGSLRLSCAASGSIFFIYAMGWYRQAPGKERELVAAITSGDRTYSADSVKGRFTISRDNAKNTVYLQMNSLKPEDTAVYYCNADYYISYWGQGTQVTVSS | low polyreactivity
QVQLVEAGGGLVQAGGSLRLSCAASGSTFSYAMGWYRQAPGKETELVAAITIGGRTSYADSVKGRFTISRDNAKNTVYLQMNSLKPEDTAVYYCAAEGYYPVYYYVYYGFDYWGQGTQVTVSS | low polyreactivity
